# Data: publication doi:10.1101/2021.11.02.466972
# Target: T1, MBP-CahR (Pseudomonas putida KT2440) (UniProt Q88GQ3)
# T1 sequence: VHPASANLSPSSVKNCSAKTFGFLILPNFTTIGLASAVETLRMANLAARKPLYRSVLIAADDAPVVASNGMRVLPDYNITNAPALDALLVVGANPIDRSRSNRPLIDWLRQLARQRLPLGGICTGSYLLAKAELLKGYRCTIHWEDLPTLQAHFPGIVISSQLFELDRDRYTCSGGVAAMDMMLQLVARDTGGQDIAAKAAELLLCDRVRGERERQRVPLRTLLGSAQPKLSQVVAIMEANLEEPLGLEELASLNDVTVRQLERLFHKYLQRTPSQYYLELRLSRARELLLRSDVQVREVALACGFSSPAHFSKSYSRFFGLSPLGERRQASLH
# Assay: EMSA
# Settings: buffer, not given
sequence,measurement,value
GTTTGTCCGAGACTTTGTGGCCGCCTGGCAGAAGGTCATGGAGCTGGACCGCTTTGATCTGAAATAGCGTTGCCTGGCGGGGGGGGCGCGCTCAGCGCCCCCTTGGCCAGTGGTTATCCCGCCAATTCCAGGTCGGATAGATACAAAAGTGTCCTCGTCGGTTCTGTTGCAATGCTTCTCAGGCGGCCGGCCTGAACAGCGTGCTCACAACGACAAGGAACCCCGACCATGCAAATGCCCAAGACC (double strand) [creA promoter probe],binding,binds
